Source: US20100272709A1 (GENERAL HOSPITAL, published 2010)

Biological target: T1, EYFP-dynK694A fusion (UniProt Q05193 1-864)
T1 construct: also called YFP-K694A; not shown: EYFP tag
T1 sequence (looked up): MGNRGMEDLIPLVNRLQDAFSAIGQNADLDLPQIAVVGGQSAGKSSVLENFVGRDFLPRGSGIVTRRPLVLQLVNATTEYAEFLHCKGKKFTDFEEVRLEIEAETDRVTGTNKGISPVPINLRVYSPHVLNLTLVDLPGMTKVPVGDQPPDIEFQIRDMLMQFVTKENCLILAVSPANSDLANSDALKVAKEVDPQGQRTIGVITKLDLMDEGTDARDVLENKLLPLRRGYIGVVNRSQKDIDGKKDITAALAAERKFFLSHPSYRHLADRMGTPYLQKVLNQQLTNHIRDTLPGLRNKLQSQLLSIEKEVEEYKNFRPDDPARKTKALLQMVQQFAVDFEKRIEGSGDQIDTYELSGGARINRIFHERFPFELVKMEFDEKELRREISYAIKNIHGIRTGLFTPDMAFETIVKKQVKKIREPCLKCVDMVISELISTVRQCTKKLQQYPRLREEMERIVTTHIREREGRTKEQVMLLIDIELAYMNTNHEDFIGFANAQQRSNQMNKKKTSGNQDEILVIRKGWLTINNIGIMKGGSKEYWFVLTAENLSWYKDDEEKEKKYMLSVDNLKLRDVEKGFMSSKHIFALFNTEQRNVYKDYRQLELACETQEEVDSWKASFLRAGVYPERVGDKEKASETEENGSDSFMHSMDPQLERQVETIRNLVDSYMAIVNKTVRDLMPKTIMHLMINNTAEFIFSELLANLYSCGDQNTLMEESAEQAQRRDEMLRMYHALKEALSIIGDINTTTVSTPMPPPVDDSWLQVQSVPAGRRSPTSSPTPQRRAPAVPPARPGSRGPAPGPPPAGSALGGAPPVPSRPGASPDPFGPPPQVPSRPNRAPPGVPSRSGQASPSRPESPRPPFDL
Assay: FLIM/FRET in live COS cells; lifetime of the ECFP donor; self-assembly

Mean Lifetime (γ1) ps: 1300 ps
B1: ECFP-dynK694A fusion (other, UniProt Q05193 1-864, looked up)
chain: T1 sequence (looked up)
notes: also called CFP-K694A; not shown: ECFP tag
